The source of these data is the supplement of paper PMC9170038.

The subject of the data set is MS2 coat protein. Briefly: apparent KD of MS2 coat protein; higher = weaker reporter binding. The settings on record: Eterna round: R107. As for the experimental part:
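RNA-MaP round R107: designed RNA switches with theophylline, tryptophan, arginine or FMN aptamers are transcribed on-chip within common flanks. They are titrated with SNAP-549-labelled MS2 coat protein in RNA-MaP buffer (100 mM Tris pH 7.5, 80 mM KCl, 4 mM MgCl2), without ligand or with the indicated ligand. Median apparent KD per design.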

[1] abbreviates: input ligand: theophylline 20 uM.
The mark [2] stands for this setting: input ligand: theophylline 2 mM.
Setting [3] is: input ligand: tryptophan 2.4 mM.

As to “ACGAUAGGACUUGAGGAUCACCCAAGUGAUACCAGCCUGGAAACAGGCCCUUGGCAGCACUAAUACUCCAAUAACCUAUCGAAUA [TheoAX 14 #MicroSwitchBubble #AlternativeMS2]”, the “apparent KD of MS2 coat protein” value runs as follows: (input ligand: arginine 13.2 mM) 78.6 nM; (input ligand: none) 232 nM; under setting [1], 228 nM; under setting [2], 387 nM; under setting [3], 395 nM.
The like results for “ACGGGCAUGGCGGCCGCCACUGGUUGGCGUGCGGAUGAGGGAACAUGAGGAUCACCCAUGUUGGUUAGGACCGGGCUGGCGUCGA [kkymullin]” were, in that order, 12.6 nM, 15.4 nM, 49.8 nM, 16 nM and 18 nM.
The like results for “ACGUAAUGCGGAAGGAGCGUCAUUUUAAAACAUGAGGAUCACCCAUGUAAUAUUUUUGUGUGACAGGUAGGUCGCCGAAGUACGA [#07 Same State - Arginine B]” were, in that order, 14.4 nM, 12.9 nM, 19.3 nM, 14.4 nM and 13.6 nM.
As for “ACGUUUUAGUCGGCCGCCACUGUUUUCAUGUUCAACAUGAGGAUCACCCAUGUACCUUUUUUUAUCAGGACCGGGACGUAAUAGA [JR_SSTryptoB_Sub004]”, the “apparent KD of MS2 coat protein” value runs as follows: (input ligand: arginine 13.2 mM) 47.7 nM; under setting [1], 102 nM; under setting [2], 77.3 nM.
Regarding “ACUGGACAUGAGGAUCACCCAUGUGGCGAUACCAGUUUCAGCGGGAACCCUUGGCAGCGCGGUGCCGGCCAUAGAAGUUCUGGGA [theeternabot_sameState_MS2_Theo_A_39]”, the “apparent KD of MS2 coat protein” value reads like this: (input ligand: arginine 13.2 mM) 42.1 nM; under setting [1], 56.1 nM; under setting [3], 40.6 nM.
The like results for “ACUUUGUCGGGUGAUACCAGCCUCGGCAAAUCUCGUGCCGAACAUGAGGAUCACCCAUGUGGCCCUUGGCAGCACAUGACAACUC [Cezara]” were, in that order, 26.3 nM, 546 nM and 912 nM.
The like results for “AGACAUGAGGAUCACCCAUGUAGUACGGAUACCAGAUCCAGAUGCGUCCCUUGGCAGCUGUAGUACAGCGUUACAUCGCUCGUAG [Exclusion - Theophylline A (Freestyle 24)]” were, in that order, 16.9 nM, 24.8 nM and 22.4 nM.
For “AGAUUACAUGUUAUAAUACGGUAUACUGAUACCAGUGUUUCUAUUCACCCUUGGCAGCAGCAACAUGAGGAUCACCCAUGUAUUA [JR_SSTheophyA_Sub017]”, in that order: 14.9 nM, 21.4 nM and 17.7 nM.
Regarding “AGAUUCGACACGGCCGCCACUCGUGACGGAUUUCCGAGUGUCGAACAUGAGGAUCACCCAUGUACGAGGACCGGGUGUUGAGUCU [XTryp B #13]”, the “apparent KD of MS2 coat protein” value reads like this: (input ligand: arginine 13.2 mM) 39.6 nM; under setting [1], 86.7 nM; under setting [2], 90.4 nM.
For “AGCAACAAGUCGGCCGCCACUCUUUUAACAUGAGGAUCACCCAUGUUUAUAUCAUGGUUUUAAUAGAGGACCGGGACAGUUGCAU [JR_ExcTryptoB_Sub005]”, in that order: 26.3 nM, 37 nM and 43.2 nM.
For “AGCACGGUGAUGGUAGCCGGACGAUAAGUACGAGGACCGGUACGGCCGCCACUCGAAGUCCUACGACAUGAGGAUCACCCAUGUA [Same State Trp A GF11]”, the “apparent KD of MS2 coat protein” value by setting is: (input ligand: arginine 13.2 mM) 30.4 nM; under setting [1], 47 nM; under setting [2], 73.6 nM.
The like results for “AGCACUGUGACGGCCGCCACUAUAUUAGGGUGGUCAGGUUCAUAAAUACAUGAGGAUCACCCAUGUAGGACCGGGUCUCAGUGCA [Omei Trp Exc B A v3]” were, in that order, 11.1 nM, 13.8 nM and 12.3 nM.
For the sequence “AGCAGCUCGAAAGAGUUGCACUCAUGUGAAGGAGCGCCCGUUAGGGCAGGUAGGUCGCACAUGAGGAUCACCCAUGUACCUUCUA [ArgAX 20 #OpenEnded #MS2Late]”, the “apparent KD of MS2 coat protein” value worked out at 84.4 nM (input ligand: arginine 13.2 mM); 174 nM (input ligand: none); 182 nM under setting [1]; 273 nM under setting [2]; 188 nM under setting [3].
As to “AGCAGCUGGUUUCUUUUCUUUACAGCUGCACGAGGACCGGUACGGCCGCCACUCGAGGACAUGAGGAUCACCCAUGUGCCGGUCG”, the “apparent KD of MS2 coat protein” value by setting is: (input ligand: arginine 13.2 mM) 34.1 nM; (input ligand: none) 25.6 nM; under setting [1], 40.6 nM; under setting [2], 49.7 nM; under setting [3], 22.7 nM.
Regarding “AGCGACAUGCGUGAUACCAGCUACAUGAGGAUCACCCAUGUACGUCAGUAAUGACUGUGUAGCCCUUGGCAGCAUAAUGCAUGUC [Exclusion - Theophylline B (Freestyle 18)]”, the “apparent KD of MS2 coat protein” value (input ligand: arginine 13.2 mM) came to 36.1 nM, the “apparent KD of MS2 coat protein” value under setting [1] was found to be 55.8 nM and the “apparent KD of MS2 coat protein” value under setting [3] turned out to be 33.3 nM.
For “AGCGCAGGUCCUGAUACCAGAGACAUGAGGAUCACCCAUGUCCGAUGGUCCUGCCUCAGGCUCCCUUGGCAGCAGGGCUUGUGCU [Exclusion Theophylline B GF10]”, in that order: 10.6 nM, 13.1 nM and 10.1 nM.
As for “AGCGUAUAGACGGAUACCAGCGCCGAUUAACAUGAGGAUCACCCAUGUAGUGUGGGUGGACGCCCUUGGCAGCCGAGUAUAGGUA [#07 Exclusion-TheophyllineB]”, the “apparent KD of MS2 coat protein” value (input ligand: arginine 13.2 mM) is 391 nM; the “apparent KD of MS2 coat protein” value (input ligand: none) was 89.7 nM; the “apparent KD of MS2 coat protein” value under setting [1] stood at 115 nM; the “apparent KD of MS2 coat protein” value under setting [2] is 360 nM; the “apparent KD of MS2 coat protein” value under setting [3] stood at 221 nM.
For the sequence “AGCUCAUAGAGUGAUACCAGACUACAUGAGGAUCACCCAUGUUACUUUUAAAUAUCAUUUGUCCCUUGGCAGCACAUGAAGAGCA [JR_Nu_ExcTheophyB_Sub017]”, the “apparent KD of MS2 coat protein” value by setting is: (input ligand: arginine 13.2 mM) 18.3 nM; under setting [1], 18.5 nM; under setting [3], 13.8 nM.
In the case of “AGGCUUCGCAUAGGAAAACUAUGUGAAGCCCGAGGACCGGUACGGCCGCCACUCGUCCUCAACAUGAGGAUCACCCAUGUAAUAA [Mat - Exclusion - Trytophan A - D1]”, the “apparent KD of MS2 coat protein” value is, setting by setting: (input ligand: arginine 13.2 mM) 24.5 nM; (input ligand: none) 15.4 nM; under setting [1], 41.6 nM; under setting [2], 24.6 nM; under setting [3], 28.8 nM.
The like results for “AGUAGUUGACAAAAGUCAGCUACAAUUGAAGGAGCGGGAUCCUUCCCAGGUAGGUCGCAAUAACAUGAGGAUCACCCAUGUCAAA [ArgAS 4 #BothOrNeither #OpenEnded]” were, in that order, 15.9 nM, 27.7 nM, 26.6 nM, 20.4 nM and 20.3 nM.
Turning to “AGUCACUCGAGGUGAUCUGACGAGUGGCAACGAGGACCGGUACGGCCGCCACUCGAAUAAACAUGAGGAUCACCCAUGUACAAAU [T''-M'-T'-T-MS2 - Design 11]”, the “apparent KD of MS2 coat protein” value is, setting by setting: (input ligand: arginine 13.2 mM) 54 nM; under setting [1], 216 nM; under setting [2], 626 nM.
Regarding “AGUCUUAAUGGAAGGAGCGCAGUCAUAACAUGAGGAUCACCCAUGUCGAUGUGAGGGUCAUUGCAGGUAGGUCGCCAUACUAAGA [Same State - Arginine B (Freestyle 4)]”, the “apparent KD of MS2 coat protein” value runs as follows: (input ligand: arginine 13.2 mM) 24.7 nM; (input ligand: none) 31 nM; under setting [1], 25 nM; under setting [2], 25.3 nM; under setting [3], 32.6 nM.
As to “AGUCUUGAACGAAGGAGCGACGUACAUGAGGAUCACCCAUGUGGAGCGAAAGCUCCGUAACGUCAGGUAGGUCGCGUUCGAGACA [Omei Arginine B SS A v3]”, the “apparent KD of MS2 coat protein” value reads like this: (input ligand: arginine 13.2 mM) 6.89 nM; (input ligand: none) 9.25 nM; under setting [1], 15.6 nM; under setting [2], 13.1 nM; under setting [3], 12.5 nM.
Consider “AGUUUGGACUCGGCCGCCACUCGUGAUGCUUUGGCACAUGAGGAUCACCCAUGUGGUCGGCCUUAGAGGACCGGGAGUACCAGCC [Edesceso]”, for which the “apparent KD of MS2 coat protein” value was found to be 82.5 nM (input ligand: arginine 13.2 mM), 297 nM under setting [1] and 342 nM under setting [2].
As to “AUAACAUGAGGAUCACCCAUGUAAGCAGAUACCAGCUAGGAAACUAGCCCUUGGCAGCUGCAAUCAUGGGUGUUUGCAGCUGCAA [(M1)-(M2)-(T1)-(T2)-(M)'-(T)'_Design2]”, the “apparent KD of MS2 coat protein” value by setting is: (input ligand: arginine 13.2 mM) 21.2 nM; (input ligand: none) 18.1 nM; under setting [1], 36.9 nM; under setting [2], 19.9 nM; under setting [3], 13 nM.
Take “AUAAGUAAUGUUUCGUGUAUUAUUACAGAUACCAGACUAUACGUUGUCCCUUGGCAGCUGGAUUACAUGAGGAUCACCCAUGUUG [JR_ExcTheophyA_Sub002]”: the “apparent KD of MS2 coat protein” value is 16 nM (input ligand: arginine 13.2 mM), 19.3 nM under setting [1] and 17.1 nM under setting [3].
